Target: T1, His-GlnR (UniProt O53830)
T1 sequence: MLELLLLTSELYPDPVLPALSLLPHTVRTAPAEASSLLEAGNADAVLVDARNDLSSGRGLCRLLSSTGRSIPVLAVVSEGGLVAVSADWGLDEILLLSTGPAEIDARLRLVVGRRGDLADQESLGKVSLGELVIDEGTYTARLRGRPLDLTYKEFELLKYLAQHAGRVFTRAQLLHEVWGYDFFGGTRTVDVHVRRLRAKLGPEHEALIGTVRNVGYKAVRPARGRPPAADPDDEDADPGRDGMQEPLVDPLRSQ
Test: EMSA

Row | Sequence | binding
1 | ACTCCCTGCGGCAAGGTGTAGGCCAGCTCGCGCAACTTAACCGCGCACTCGTAGAGCGTCTGGCGGAAATGCGTTTCGGTCATCGGGGTGCCTTCGCTCGTCGGCGAGATCGGCAGCGGTGTCTTGTGCTCATACAGATCAATCTCATTCATCAGAGCCATCATTCGCCGGCTAGCAGCTGCAAATCATCAGCACATCCACGTATGTC (double strand) [Rv1360 upstream region (negative control)] | no binding
2 | CACAGACTCCATCTGTTGGGGGTTCAACGGGGATTCAACCGGACACTTAGCGCCACTATTGAATATGAATATCATTTGAACGAGAGGTTAACACAGCGTGACGACGGCCCAGGGCGGTGAGTTTGGTCACACGAGCGCTGGGCTCACCACCCCATGCTGGTGGGATTTAGC (double strand) [peak 13, Rv1386 (PE15) promoter region] | binds
3 | CATGAGCTGATGAATGGAGTCCACTACCGGCCGGTGCGGCGACCAAGGATCTGTTTGCGACGGGATCTGTGCGACGTTGGCGGCAATCAGCTTGTTACAGCTGATAATCCGAGCGTGATCGCGACCTAACCGGCAGGCAACGCCGGCATGGTCCCCTGGCACGATGGGACTACTGTCACGCTTGCGCAAACGTGAGCCGATCAGCATCTACGACAAGATC (double strand) [peak 17, Rv1542c (glbN) promoter region] | binds
4 | GTACGTCCACAATCGAAGGACGCGGAAGCACGGGGCCGCGACCACCGAGACCCGTGGCGGCCCATGGCCGCAAGGAGGCTCCTCGCGAGATTCGTCACGCGTTACCTGGATTTAACCTGCGCCCGTCCGAAGCGCCCGGCTTTTTCGTAGGCTTCGCTGCGGTTGGGGCCAGACAGCGCCGTGAAGCCCGGTGGGTGTGGCCGGCTGACGGGATGGT (double strand) [peak 18, Rv1548c (PPE22)/Rv1549 (fadD11) promoter region] | binds

— paper PMC4950008
